Laboratory results reported in US20160186149A1.

Tests used:
[1] = target: mannose-6-phosphate (M6P) receptor; assay: M6P receptor plate binding assay: receptor coated at 4 ug/mL, GALNS 0.16-10 nM, bound GALNS read by enzyme activity, single-site binding fit
[2] = target: mannose-6-phosphate (M6P) receptor; assay: M6P receptor affinity column (Affi-Gel 15), 6 ug GALNS loaded, eluted with mannose-6-phosphate gradient, quantified by GALNS ELISA
[3] = target: mannose-6-phosphate (M6P) receptor; assay: M6P receptor plate binding assay

Kd [1] [nM] | M6P Receptor Column Binding: % Bound [2] [%] | Kd [3] [nM] | Binder
2.4 | 56 |  | recombinant human N-acetylgalactosamine-6-sulfatase (GALNS), purified, produced from G71S clone 4 co-expressing human SUMF1 (enzyme, Cys at position 53 of the precursor (position 79 of SEQ ID NO:4) converted to Calpha-formylglycine (FGly), about 90%; N-linked glycosylation at Asn178 (bis-phosphorylated mannose 7, BPM7) and Asn397 (oligomannose-type), precursor numbering; 0.58 mol M6P (BPM7)/mol GALNS) APQPPNILLLLMDDMGWGDLGVYGEPSRETPNLDRMAAEGLLFPNFYSANPLCSPSRAALLTGRLPIRNGFYTTNAHARNAYTPQEIVGGIPDSEQLLPELLKKAGYVSKIVGKWHLGHRPQFHPLKHGFDEWFGSPNCHFGPYDNKARPNIPVYRDWEMVGRYYEEFPINLKTGEANLTQIYLQEALDFIKRQARHHPFFLYWAVDATHAPVYASKPFLGTSQRGRYGDAVREIDDSIGKILELLQDLHVADNTFVFFTSDNGAALISAPEQGGSNGPFLCGKQTTFEGGMREPALAWWPGHVTAGQVSHQLGSIMDLFTTSLALAGLTPPSDRAIDGLNLLPTLLQGRLMDRPIFYYRGDTLMAATLGQHKAHFWTWTNSWENFRQGIDFCPGQNVSGVTTHNLEDHTKLPLIFHLGRDPGERFPLSFASAEYQEALSRITSVVQQHQEALVPAQPQLNVCNWAVMNWAPPGCEKLGKCLTPPESIPKKCLWSH
 |  | 5.7 | recombinant human N-acetylgalactosamine-6-sulfatase (GALNS), purified, produced from G71S clone C2 co-expressing human SUMF1 (enzyme, Cys at position 53 of the precursor (position 79 of SEQ ID NO:4) converted to Calpha-formylglycine (FGly); N-linked glycosylation at Asn178 (BPM7) and Asn397; 0.69 mol M6P/mol GALNS) APQPPNILLLLMDDMGWGDLGVYGEPSRETPNLDRMAAEGLLFPNFYSANPLCSPSRAALLTGRLPIRNGFYTTNAHARNAYTPQEIVGGIPDSEQLLPELLKKAGYVSKIVGKWHLGHRPQFHPLKHGFDEWFGSPNCHFGPYDNKARPNIPVYRDWEMVGRYYEEFPINLKTGEANLTQIYLQEALDFIKRQARHHPFFLYWAVDATHAPVYASKPFLGTSQRGRYGDAVREIDDSIGKILELLQDLHVADNTFVFFTSDNGAALISAPEQGGSNGPFLCGKQTTFEGGMREPALAWWPGHVTAGQVSHQLGSIMDLFTTSLALAGLTPPSDRAIDGLNLLPTLLQGRLMDRPIFYYRGDTLMAATLGQHKAHFWTWTNSWENFRQGIDFCPGQNVSGVTTHNLEDHTKLPLIFHLGRDPGERFPLSFASAEYQEALSRITSVVQQHQEALVPAQPQLNVCNWAVMNWAPPGCEKLGKCLTPPESIPKKCLWSH
